In paper PMC5053661, “Human papillomavirus oncogenic E6 protein regulates human β-defensin 3 (hBD3) expression via the tumor suppressor protein p53”:

B1: hBD3 promoter -1339 p53 probe (dsDNA)
DNA 1: TGACTGTCTGCCCATCTACCTGGCCCTACAT
DNA 2: ATGTAGGGCCAGGTAGATGGGCAGACAGTCA
B2: hBD3 -1339 mutant probe (dsDNA)
DNA 1: TGACTGTCGACCCATCTACCTGGCCCTAAATTG
DNA 2: CAATTTAGGGCCAGGTAGATGGGTCGACAGTCA

Molecular target: p53 (UniProt P04637 1-393)
Experiment: EMSA; 100 ng p53, 100 nM probe; EMSA: 100 ng recombinant p53, 100 nM annealed biotin probe; binding buffer, salt, pH and temperature not given (ref 63)
Conditions: protein: commercial, chain copies: 4, label: 3'-biotin

Chain of p53 (P04637 whole entry): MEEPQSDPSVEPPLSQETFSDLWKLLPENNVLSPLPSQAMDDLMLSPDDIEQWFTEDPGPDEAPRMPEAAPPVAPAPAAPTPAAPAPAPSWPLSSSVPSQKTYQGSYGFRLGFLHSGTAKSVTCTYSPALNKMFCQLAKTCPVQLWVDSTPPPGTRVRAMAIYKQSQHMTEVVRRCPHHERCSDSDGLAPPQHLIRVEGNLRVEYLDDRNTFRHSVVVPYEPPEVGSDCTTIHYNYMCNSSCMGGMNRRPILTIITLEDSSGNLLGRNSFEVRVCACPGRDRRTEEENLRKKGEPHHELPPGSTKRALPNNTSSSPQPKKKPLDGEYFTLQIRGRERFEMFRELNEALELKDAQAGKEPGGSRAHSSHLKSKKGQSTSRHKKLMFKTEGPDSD

| Binder | binding result |
| --- | --- |
| B1 | binds |
| B2 | no binding |
